# T1: Pur-alpha 56-287 (C272S) (human, UniProt Q00577 56-287, C272S)
# T1 sequence: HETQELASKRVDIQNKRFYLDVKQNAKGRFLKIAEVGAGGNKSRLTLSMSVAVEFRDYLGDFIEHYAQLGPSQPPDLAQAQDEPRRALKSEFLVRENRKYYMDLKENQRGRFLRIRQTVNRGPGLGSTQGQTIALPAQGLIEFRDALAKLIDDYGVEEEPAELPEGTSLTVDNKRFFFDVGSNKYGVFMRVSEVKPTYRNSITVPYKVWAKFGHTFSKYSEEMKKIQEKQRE
# B1: selenomethionine-substituted B. burgdorferi Pur-α 8–105 (L17M, F27M, I64M) (domain or fragment)
# chain: ERGEVYSEKMFTESERTYFMNVKENRKGDYFLNIVESKRSPSGDFERHSIFVYEENMNEFESNLLKAIAVIKQKVSTGSVGSSARHNKGYGEYGERSK
# modifications: selenomethionine-substituted (methionines introduced at positions 17, 27 and 64; no other methionines in this fragment)
# notes: Expressed from the pGEX6p1 vector (BamHI/XhoI); Only amino acids 8 to 84 are visible in the electron density; also called SeMet; selenomethionine-derivatized protein; source: E. coli BL21, purified (glutathione column, protease cleavage, Q column, heparin column, size-exclusion chromatography)
# B2: B. burgdorferi Pur-α 8–105 (domain or fragment, Borrelia burgdorferi B31, UniProt O51076-2 8-105, looked up)
# chain: ERGEVYSEKLFTESERTYFFNVKENRKGDYFLNIVESKRSPSGDFERHSIFVYEENINEFESNLLKAIAVIKQKVSTGSVGSSARHNKGYGEYGERSK
# notes: Pur-α (hypothetical protein BB0047) of Borrelia burgdorferi B31, 127-amino acid gene product, amino acids 8 to 105; Expressed from the pGEX6p1 vector (BamHI/XhoI); also called native protein; BB0047 fragment; source: E. coli BL21, purified (glutathione column, protease cleavage, Q column, heparin column, size-exclusion chromatography)
# Experiments:
# Pur-alpha 56-287 (C272S) [1] = biological target: T1, Pur-alpha 56-287 (C272S); test: filter binding; replicates 491, 438, 306; 2.5 mM MgCl2; 100 mM NaCl, 10 mM HEPES pH 8.0, 2.5 mM MgCl2, 1 mM DTT; 0.5 nM labeled oligo, 0-10 uM protein, 20 min, room temperature; conditions: protein: recombinant; tags: GST removed by protease (tag cleaved); chain copies: 2; label: 5'-32P; single strand
# Pur-alpha 56-287 (C272S) [2] = biological target: T1, Pur-alpha 56-287 (C272S); test: filter binding; replicates 207, 258; 2.5 mM MgCl2; 100 mM NaCl, 10 mM HEPES pH 8.0, 2.5 mM MgCl2, 1 mM DTT; 0.5 nM labeled oligo, 0-10 uM protein, 20 min, room temperature; conditions: protein: recombinant; tags: GST removed by protease (tag cleaved); chain copies: 2; label: 5'-32P; single strand
# Pur-alpha 56-287 (C272S) [3] = biological target: T1, Pur-alpha 56-287 (C272S); test: filter binding; protein 0-10 uM; 2.5 mM MgCl2; 100 mM NaCl, 10 mM HEPES pH 8.0, 2.5 mM MgCl2, 1 mM DTT; 0.5 nM labeled oligo, 0-10 uM protein, 20 min, room temperature; conditions: protein: recombinant; tags: GST removed by protease (tag cleaved); chain copies: 2; label: 5'-32P; single strand
# [4] = biological target: the molecule itself; test: crystal structure; selenomethionine-substituted crystals grown at 4°C in 2.8 M sodium formate, protein 1.2 mg/mL, stoichiometric addition of the DNA oligomer hTel12 (not visible in the model); SAD, 1.9 Å
# [5] = biological target: the molecule itself; test: crystal structure; native crystals grown at 21°C, hanging drop, protein 2.2 mg/ml, 100 mM HEPES (pH 7.2), 20% PEG 3350; molecular replacement, 2.2 Å
binder,measurement,setting,value
AGGGTTAGGGTT (ssDNA) [hTel12],Kd,Pur-alpha 56-287 (C272S) [1],411 ± 95 nM
GGAGGGGGAGGC (ssDNA) [JCVupTAR],Kd,Pur-alpha 56-287 (C272S) [2],233 ± 36 nM
CCTCCGCCTCCG (ssDNA) [Control],binding result,Pur-alpha 56-287 (C272S) [3],no binding
B1,stoichiometry N,[4],2
B2,binding result,[5],binds

# From publication PMC2954813, “Of Bits and Bugs — On the Use of Bioinformatics and a Bacterial Crystal Structure to Solve a Eukaryotic Repeat-Protein Structure” (PLoS ONE, 2010)
